Laboratory results reported in the supplement of paper PMC9233669.
Fewer inactive variants are shown than the library holds.

Legend:
biotinyl-Phe-oxazolone = assay: self-aminoacylation, catalytic enhancement (BFO) (fold over background); higher = more active; k-Seq, kA / k0A0; sequences stand for … in GGGAAUGGAUCCACAUCUACGAAUUC…UUCACUGCAGACUUGACGAAGCUG
Method in brief: (§1)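 Mutagenized RNA pools (0.43 μM; 21-nt variable region) were treated with 2–1250 μM of each biotinyl-aminoacyl-oxazolone. Conditions were 50 μL HEPES/NaCl/KCl/MgCl2/CaCl2 buffer, 5% acetonitrile, pH 6.9–7.0, room temperature, 90 minutes. Catalytic enhancement, the median kA relative to the uncatalyzed rate, was derived from streptavidin capture, qPCR and Illumina sequencing.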

biotinyl-Ile-oxazolone = assay: self-aminoacylation, catalytic enhancement (BIO) (fold over background); higher = more active; k-Seq, kA / k0A0; sequences stand for … in GGGAAUGGAUCCACAUCUACGAAUUC…UUCACUGCAGACUUGACGAAGCUG
Method in brief: as §1

biotinyl-Met-oxazolone = assay: self-aminoacylation, catalytic enhancement (BMO) (fold over background); higher = more active; k-Seq, kA / k0A0; sequences stand for … in GGGAAUGGAUCCACAUCUACGAAUUC…UUCACUGCAGACUUGACGAAGCUG
Method in brief: as §1

biotinyl-Val-oxazolone = assay: self-aminoacylation, catalytic enhancement (BVO) (fold over background); higher = more active; k-Seq, kA / k0A0; sequences stand for … in GGGAAUGGAUCCACAUCUACGAAUUC…UUCACUGCAGACUUGACGAAGCUG
Method in brief: as §1

biotinyl-Leu-oxazolone = assay: self-aminoacylation, catalytic enhancement (BLO) (fold over background); higher = more active; k-Seq, kA / k0A0; sequences stand for … in GGGAAUGGAUCCACAUCUACGAAUUC…UUCACUGCAGACUUGACGAAGCUG
Method in brief: as §1

biotinyl-Trp-oxazolone = assay: self-aminoacylation, catalytic enhancement (BWO) (fold over background); higher = more active; k-Seq, kA / k0A0; sequences stand for … in GGGAAUGGAUCCACAUCUACGAAUUC…UUCACUGCAGACUUGACGAAGCUG
Method in brief: as §1

Sequence | self-aminoacylation (biotinyl-Phe-oxazolone) | self-aminoacylation (biotinyl-Ile-oxazolone) | self-aminoacylation (biotinyl-Met-oxazolone) | self-aminoacylation (biotinyl-Val-oxazolone) | self-aminoacylation (biotinyl-Leu-oxazolone) | self-aminoacylation (biotinyl-Trp-oxazolone)
AAGUUUGCUAAUAGUCGCAGC [Fam3.1 aminoacylation ribozyme variant] | 1.11 | 1.17 | 0.956 | 0.913 | 0.821 | 1.99
AGGUUUGCUAACAGUCGCAAG [Fam3.1 aminoacylation ribozyme variant] | 15.2 | 1.57 | 1.68 | 1.25 | 1.66 | 4.91
CUACUUCAAACUAUCGGUCUG [Fam1A.1 aminoacylation ribozyme variant] | 1.15 | 0.906 | 0.818 | 0.905 | 0.779 | 0.905
AGUACCCUGGUCUUCGAGUGA [Fam2.1 aminoacylation ribozyme variant] | 31.2 | 3.54 | 5.41 | 3.27 | 5.96 | 7.11
AAGUUUGCUAAUAGUCGCCCG [Fam3.1 aminoacylation ribozyme variant] | 9.34 | 3.76 | 2.98 | 2.69 | 3.87 | 3.76
CUACUUCAGACAAUGGGUCUG [Fam1A.1 aminoacylation ribozyme variant] | 0.994 | 0.948 | 0.798 | 0.791 | 0.916 | 0.664
CCAGAAUUCAAGCAAUCGGUC [Fam1B.1 aminoacylation ribozyme variant] | 2.26 | 1.91 | 1.65 | 1.6 | 2.3 | 1.81
CCGCACUUCAAGCGAUCGGUC [Fam1B.1 aminoacylation ribozyme variant] | 2.22 | 1.34 | 1.53 | 1.8 | 1.3 | 4.81
AUUCACCUAGGGGAUCGGGUG [Fam2.2 aminoacylation ribozyme variant] | 32 | 3.44 | 4.34 | 3.26 | 6.82 | 4.28
AUUCACCUAGGUCAUGGGGGG [Fam2.2 aminoacylation ribozyme variant] | 1.11 | 2.55 | 2.72 | 2 | 3.18 | 2.23
AUUCCUCUGGUCAUCGAGUGA [Fam2.1 aminoacylation ribozyme variant] | 31.6 | 3.75 | 6.73 | 4.02 | 6.46 | 7.73
AUUACCCUGAUCAUCCAGUGA [Fam2.1 aminoacylation ribozyme variant] | 16.9 | 2.91 | 5.79 | 3.49 | 5.22 | 7.09
AGUACCCGGGUCAUCGAGUGA [Fam2.1 aminoacylation ribozyme variant] | 49.1 | 4.51 | 7.25 | 3.98 | 7.7 | 7.64
AUUACCCUGGUCAGCGAGUGU [Fam2.1 aminoacylation ribozyme variant] | 15.4 | 2.49 | 3.7 | 2.41 | 3.85 | 4.47
ACUACGCUGGUCAUCGAGUGA [Fam2.1 aminoacylation ribozyme variant] | 35.1 | 4.74 | 5.77 | 4.04 | 5.5 | 7.58
AUUCAUCUACGUCAUCGGGUG [Fam2.2 aminoacylation ribozyme variant] | 53 | 3.69 | 6.12 | 3.82 | 8.74 | 7.17
CUACUUCAAACACUCGUUCUG [Fam1A.1 aminoacylation ribozyme variant] | 0.429 | 0.595 | 0.499 | 0.635 | 0.492 | 0.444
CUACUUCAAACAAUCGGUCCA [Fam1A.1 aminoacylation ribozyme variant] | 1.79 | 0.753 | 0.654 | 0.757 | 0.633 | 0.907
AUUCACCUAGGUGAUCCGGUG [Fam2.2 aminoacylation ribozyme variant] | 22.1 | 3.26 | 5.12 | 3.03 | 4.06 | 3.31
AUUACCCUGGUCAUCGAGAGA [Fam2.1 aminoacylation ribozyme variant] | 3.1 | 1.28 | 1.8 | 1.36 | 1.72 | 1.46
CUACUUCAAACAAUCGCUCUU [Fam1A.1 aminoacylation ribozyme variant] | 0.851 | 0.938 | 0.772 | 0.856 | 0.539 | 0.632
AUUCUCCUAGGUCACCGGGUG [Fam2.2 aminoacylation ribozyme variant] | 39.8 | 5.47 | 7.25 | 5.85 | 10.2 | 7.7
AUUGACAUAGGUCAUCGGGUG [Fam2.2 aminoacylation ribozyme variant] | 48.4 | 5.14 | 7.3 | 4.42 | 8.84 | 8.04
AAUCACCCAGGUCAUCGGGUG [Fam2.2 aminoacylation ribozyme variant] | 27.9 | 4.58 | 4.82 | 4.93 | 3.76 | 6.23
AAGUUUGCAUAUAGUCGCAAG [Fam3.1 aminoacylation ribozyme variant] | 0.843 | 0.762 | 0.636 | 0.961 | 0.744 | 0.826
AAGUUUGCUAAUCGUCGCUAG [Fam3.1 aminoacylation ribozyme variant] | 1.07 | 0.976 | 0.844 | 0.834 | 0.87 | 0.871

Sequence | self-aminoacylation (biotinyl-Phe-oxazolone) | self-aminoacylation (biotinyl-Ile-oxazolone) | self-aminoacylation (biotinyl-Met-oxazolone) | self-aminoacylation (biotinyl-Val-oxazolone) | self-aminoacylation (biotinyl-Leu-oxazolone) | self-aminoacylation (biotinyl-Trp-oxazolone)
CCCCACUUCAGGCAAUCGGUC [Fam1B.1 aminoacylation ribozyme variant] | 9.29 | 2.56 | 2.35 | 2.64 | 2.63 | 5.21
AAGUUUGCUAAGAUUCGCAAG [Fam3.1 aminoacylation ribozyme variant] | 1.13 | 0.986 | 0.647 | 0.867 | 0.86 | 1.04
GCACACUUCAAGCGAUCGGUC [Fam1B.1 aminoacylation ribozyme variant] | 1.41 | 1.66 | 1.33 | 1.82 | 1.54 | 2.19
AAGUUUGCUGAUAGUCUCAAG [Fam3.1 aminoacylation ribozyme variant] | 1.94 | 1.11 | 1.01 | 1.13 | 0.963 | 1.28
CUAUUUCAAACAACCGGUCUG [Fam1A.1 aminoacylation ribozyme variant] | 0.87 | 0.992 | 0.85 | 0.861 | 0.844 | 0.827
AUUACCCUGGGCAUCCAGUGA [Fam2.1 aminoacylation ribozyme variant] | 50.6 | 3.76 | 8.06 | 3.83 | 8.87 | 7.23
AUUCCCCCAGGUCAUCGGGUG [Fam2.2 aminoacylation ribozyme variant] | 174 | 14 | 17.1 | 11.4 | 24.7 | 17.1
AUUUCCCUGGUCAUCGAGUGA [Fam2.1 aminoacylation ribozyme variant] | 27.4 | 7.41 | 14.3 | 8.47 | 14.3 | 16.5
UUUCACCUAAGUCAUCGGGUG [Fam2.2 aminoacylation ribozyme variant] | 51.6 | 5.08 | 7.38 | 5.74 | 9.35 | 8.11
AUUCAGUUAGGUCAUCGGGUG [Fam2.2 aminoacylation ribozyme variant] | 25.6 | 3.04 | 3.8 | 3.12 | 4.86 | 4.04
CUACUUUAAACAACCGGUCUG [Fam1A.1 aminoacylation ribozyme variant] | 0.725 | 0.909 | 0.996 | 0.973 | 0.978 | 1.07
CCACACAUCAAGCAAUGGGUC [Fam1B.1 aminoacylation ribozyme variant] | 1.33 | 1.08 | 0.97 | 1.08 | 0.806 | 0.706
AAGUUUGCGAAAAGUCGCAAG [Fam3.1 aminoacylation ribozyme variant] | 2.82 | 1.46 | 1.8 | 1.43 | 1.8 | 1.3
AGUCACCUAGGUAAUCGGGUG [Fam2.2 aminoacylation ribozyme variant] | 25.4 | 3.27 | 3.4 | 2.75 | 3.37 | 3.64
UUUCACCUAGGUCAUCGCGUG [Fam2.2 aminoacylation ribozyme variant] | 84 | 6.66 | 9.16 | 6.67 | 11.4 | 9.42
AAUCAACUAGGUCAUCGGGUG [Fam2.2 aminoacylation ribozyme variant] | 39.7 | 4.49 | 5.89 | 4.4 | 6.32 | 6.47
AUUACCCUGGUCUUAGAGUGA [Fam2.1 aminoacylation ribozyme variant] | 39.5 | 4.28 | 7.82 | 4.31 | 7.33 | 9.81
CCACUCUUCGAGCAAUCGGUC [Fam1B.1 aminoacylation ribozyme variant] | 0.996 | 1.19 | 1.03 | 1.24 | 0.964 | 1.32
AUUACCCUGGUGAUCGAGUGU [Fam2.1 aminoacylation ribozyme variant] | 5.19 | 1.51 | 2.12 | 1.57 | 2.31 | 2.96
AAGUUGGUUAAUAGUCGCAAG [Fam3.1 aminoacylation ribozyme variant] | 1.87 | 1.4 | 1.42 | 1.24 | 1.46 | 1.81
AUACUUCAAACAAUCGGUCAG [Fam1A.1 aminoacylation ribozyme variant] | 3.2 | 0.82 | 0.672 | 0.891 | 0.728 | 1.88
CCACACUUCAAGAAAUCGGAC [Fam1B.1 aminoacylation ribozyme variant] | 0.823 | 0.898 | 0.663 | 0.685 | 0.572 | 0.393
CUACUUCAACCCAUCGGUCUG [Fam1A.1 aminoacylation ribozyme variant] | 0.647 | 0.983 | 0.722 | 0.983 | 0.943 | 0.838
UUUCACCUAGGUCAUAGGGUG [Fam2.2 aminoacylation ribozyme variant] | 1.69 | 1.41 | 1.28 | 1.3 | 1.38 | 1.23
AAAACCCUGGUCAUCGAGUGA [Fam2.1 aminoacylation ribozyme variant] | 462 | 26.8 | 66.9 | 26.3 | 65.1 | 73.3
